B1: Twister Ribozyme (parent)
chain: AACACUGCCAAUGCCGGUCCCAAGCCCGGAUAAAAGUGGAGGGGGCGG

Variants of: B1
Assay: self-cleavage, relative activity (ratio to wild type); higher = more cleavage; co-transcriptional

Variant | self-cleavage
A1C A33C | 0.169
A4C A30U | 0.189
U6G G13C | 0.078
C20U C26G | 0.0973
G7U C15U | 0.101
C15G G43C | 0.0538
C8G U31G | 0.464
C15U G41U | 0.452
G17U C20U | 0.167
A40U G47U | 0.12
G16C G43U | 0.11
G28U A32U | 0.873
A32C G44U | 0.936
G13A G42U | 0.191
C26A C27G | 0.0974
C5A A22U | 0.249
C14A G45C | 0.58
G17A G45U | 0.147
C5U G48A | 0.639
A10C G39C | 0.172
C27A G38C | 0.573
A11G G28A | 0.84
C8A A40U | 0.2
A30C G48A | 0.576

Variant | self-cleavage
C19G A40U | 0.0582
A1C G38U | 0.22
G44U G45C | 0.609
G24C A30U | 0.0977
A10G A33U | 0.963
G17U G44U | 0.374
A4C C9A | 0.114
C27G G28U | 0.0803
A4U A33G | 0.0639
C15G A23U | 0.06
C3G C19A | 0.0808
G7C C25U | 0.128
G17C C46G | 0.139
A22U G45U | 0.57
G29C G42A | 0.11
C3A A32G | 0.0493
G16U G41C | 0.212
A33G G36C | 0.303
G38C G42U | 0.183
C20A G42A | 0.107
C15A U18A | 0.0699
A30U G39A | 0.614
A22U C27A | 0.159
A2U C5U | 0.448

Variant | self-cleavage
U12C A23U | 0.554
A10U C14G | 0.244
C20A G48C | 0.169
G45C G47U | 0.177
C26G G39U | 0.103
C8G C21A | 0.041
C5A G44C | 0.556
U12G G41U | 0.783
C14U C20U | 0.942
C46A G48C | 0.995
A4G G16A | 0.918
G7C U31G | 0.0544
G38A G41C | 0.157
C8A G29U | 0.295
G17C A40G | 0.0717
U18G U31A | 0.0937
A1C U31C | 0.141
G16U U31A | 1.05
C9A C21A | 0.0865
G13A A35C | 1.02
G41A G45A | 0.588
C8U G44U | 0.603
G29U U37A | 0.512
A34U A35G | 0.191

Variant | self-cleavage
G41C G48C | 0.332
A4U A10C | 0.156
A4C G17U | 0.0801
A4U G42C | 0.103
A4U G42A | 0.0876
A22G C27U | 0.111
G29A A34G | 0.684
A10G A11U | 1.09
A32U G45A | 0.823
A32U G45C | 0.506
G17A C27A | 0.221
A2G G24A | 0.082
C3U G36U | 0.064
C26U G44U | 0.249
C26U G44A | 0.537
G44C G48A | 0.289
G7A A30U | 0.425
C19G C27A | 0.0851
G38A G48U | 1.1
A30C G43U | 0.121
G13A G29C | 0.692
C21U G48U | 0.125
C21U G48C | 0.133
A2U C27G | 0.126

Variant | self-cleavage
A32C G39C | 0.079
A30U G41U | 0.712
U12G A32G | 0.914
C3A C14G | 0.0567
G16C G44U | 0.81
C26G G47C | 0.145
A10G G41A | 0.748
G29C A34C | 0.148
C3U A40U | 0.0995
A2U A10C | 0.449
A32C A40C | 0.159
A4U G13U | 0.0584
C19A G48U | 0.206
G24A A35C | 0.102
A33U G42U | 0.244
G29A A35G | 0.657
C26A G47A | 0.142
A23U U37C | 0.0907
C3U G43U | 0.0863
C15G G38U | 0.0777
C15G G38C | 0.0527
A10C G45C | 0.661
C15A G36C | 0.0919
G13C G36A | 0.126

Variant | self-cleavage
A1C G43U | 0.179
A1G U6G | 0.0944
C9A G36A | 0.178
G13U G16U | 0.253
A40G G42U | 0.172
A1G C15G | 0.125
U6C A30C | 0.0653
U6C A30G | 0.477
G7U G41A | 0.0662
G39A G41U | 0.125
G39C G45A | 0.12
C15A C21U | 0.0997
G42A G43A | 0.131
A4U | 0.136
A23G G36A | 0.126
C8U C26A | 0.117
A4C A35U | 0.272
A4G C27A | 0.279
A11C G16C | 0.187
A23C G48A | 0.14
C26A G43U | 0.11
G24A G47U | 0.0892
C9G C46U | 0.609
A33G G47U | 0.927

Variant | self-cleavage
C3U C27A | 0.159
A2G C25G | 0.0917
A11G G41C | 0.313
C19U A22U | 0.601
C19U A22C | 1.15
A40C G42C | 0.164
C3A G43A | 0.0599
G36A G48U | 0.809
C3A A30G | 0.202
A11C C27A | 0.176
A11C C27U | 0.352
G28U G36A | 0.388
C19A U37G | 0.0778
A11C A35U | 0.942
A1C A10U | 0.153
C27G A30C | 0.105
A34U G44U | 0.771
A10G G48C | 1.2
A32C G47A | 0.764
A32C G47C | 0.556
U12C A30G | 0.712
C9U A22G | 0.0671
C5A G41C | 0.0838
C27A G45U | 0.207

Variant | self-cleavage
C8A G42C | 0.285
C8A G42U | 0.168
C5U G38A | 0.695
A10C G17U | 0.408
U18A C26G | 0.124
C8G G13A | 0.405
A32C C46G | 1.03
G13U A35G | 0.127
C20A G45U | 0.17
A4U C15G | 0.0221
U37G G47A | 0.673
C20A C46U | 0.154
G36U G43A | 0.102
C15G G47C | 0.0669
G42A G47A | 0.282
C5G G24A | 0.0701
A2C A10U | 0.0864
C27U G44A | 0.84
C3G A11U | 0.762
A30G G42U | 0.377
A40C | 0.262
G17A G38A | 0.498
G41C G45C | 0.253
G17C G41U | 0.0841

Variant | self-cleavage
C9A G29U | 0.686
A1G C9U | 0.259
A1C G13C | 0.116
A4G A11G | 0.96
G28U G44C | 0.782
C20A A30C | 0.109
C20A A30U | 0.175
G24C A32G | 0.0875
C19A G28U | 0.179
C27U G28U | 0.501
A23U C25A | 0.0618
U6C C20G | 0.0668
G36A G47U | 0.76
A35U U37G | 0.69
G7A A11G | 0.48
U18C G43U | 0.111
C14A C26U | 0.247
A34U G39C | 0.138
G24A G45C | 0.0846
C20U G43A | 0.177
C19U A35G | 0.683
A4G C9U | 0.549
A11G A33C | 0.836
C5G G7U | 0.0648

Variant | self-cleavage
G38C G47A | 0.737
G38C G47C | 0.388
G17A C20A | 0.0884
A1C A34U | 0.176
C21A G38C | 0.101
U6G A35G | 0.281
U6G G42A | 0.0807
A1G G45A | 0.32
C20U G44C | 0.816
G39U G42A | 0.104
C20G G24A | 0.109
C20A G41C | 0.0888
U31A A32C | 1.09
U31G A33C | 1.03
G36A U37C | 0.156
U18C A22G | 0.0724
A1C C21G | 0.0972
C5G C14A | 0.557
U18C A23U | 0.242
A33G G43C | 0.144
A4U G16C | 0.0898
C26U A35G | 0.169
A1U A33C | 0.0396
A1U A11G | 0.0739

Variant | self-cleavage
G39A G43A | 0.152
C25U A33G | 0.853
G42C G48A | 0.516
G42C G48C | 0.606
A22C G44C | 0.905
C21G G45U | 0.0493
A11U C15A | 0.62
A22G G28U | 0.197
A34U G48A | 0.703
C21U U31A | 0.105
U12A C19A | 0.342
U6A G42U | 0.163
A2G G17C | 0.0381
G13A U31G | 1.01
G13C A32U | 0.108
A22U C46G | 0.816
C3A C46G | 0.117
G16A C19A | 0.241
C15G G39A | 0.0759
C5G G48A | 0.67
C14G G47C | 0.0728
G24C G47U | 0.0811
A40C C46G | 0.218
U31A G38C | 0.801

Variant | self-cleavage
G29A G47A | 0.689
G16C G47A | 0.165
C14G C27G | 0.0942
G29U A40G | 0.167
A23U G45U | 0.249
U12G C46A | 0.706
A1U C46U | 0.0668
C21U G42U | 0.0927
G24C A40G | 0.0575
G7U G48C | 0.123
A23C G29A | 0.196
A10G A35G | 0.92
A10C C21A | 0.124
G44A C46U | 0.988
G38U G42U | 0.12
G7C G36U | 0.0725
A11G C27G | 0.0637
C20U A23U | 0.17
A1U U18A | 0.0328
A1U U18G | 0.0681
A1U U18C | 0.054
C9U G36C | 0.12
C3G A40U | 0.113
U18A G28C | 0.185

Variant | self-cleavage
G38C G43C | 0.137
U18A C25U | 0.0861
G16C A33U | 0.359
A34C A40U | 0.0943
C46A G47C | 0.952
A2U C26A | 0.131
A40U G43A | 0.132
G17A G44U | 0.704
G17A A33C | 0.384
G29A A32C | 0.916
C9G G29U | 0.447
G13A C27A | 0.0875
A10U C19A | 0.331
A4U C27A | 0.0441
G29A U37G | 0.395
C26G A30G | 0.214
U6C A32C | 0.349
U18G A33U | 0.0323
A33U G39C | 0.0973
A33U G39U | 0.162
U6G G28A | 0.138
G7C G13U | 0.0637
C14G G48C | 0.163
C19G G28C | 0.108

Variant | self-cleavage
C21G G41U | 0.32
C19G G44C | 0.27
A2G G13C | 0.0608
A35C G41C | 0.245
A22G A35U | 0.313
A1G C5U | 0.328
A2C C3G | 0.127
G28A A30C | 0.935
G17A C46U | 0.774
C19A C25A | 0.0869
G7U G43U | 0.102
A11G C21U | 0.12
A1G U12A | 0.515
C15U A23C | 0.134
G16U G44U | 1.14
C14G G44A | 0.174
U12A A32G | 1.12
U18G C25U | 0.085
C20U C27G | 0.0816
G24U A30G | 0.111
A35U G48C | 1.07
G16A A32G | 0.888
